For assay [1], the target named is T1, Full-length human TIGIT on CHO-K1 cells (CHO-K1 human TIGIT) (human, UniProt Q495A1 22-244).
T1 construct: NCBI XP_024309156.1; the entry includes the signal peptide (limits not recoverable); The strain (high, medium, low) is named under assay; also called high expression strain 1D2; medium expression strain 2D10
T1 sequence: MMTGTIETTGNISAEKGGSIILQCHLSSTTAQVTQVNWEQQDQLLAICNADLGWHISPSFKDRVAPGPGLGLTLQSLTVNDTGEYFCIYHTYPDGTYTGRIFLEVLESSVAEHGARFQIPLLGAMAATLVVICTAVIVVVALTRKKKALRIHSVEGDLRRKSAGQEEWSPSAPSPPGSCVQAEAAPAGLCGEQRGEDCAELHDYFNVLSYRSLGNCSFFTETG
Description: FACS; CHO-K1 human TIGIT medium expression strain. An outline of the steps:
(§1)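 The EC50 was derived from binding curves obtained by flow cytometry on CHO-K1 cells expressing full-length TIGIT of human or cynomolgus monkey origin. Cells (2×10⁵/50 μL, 1% BSA-PBS) were mixed 1:1 with a 12-point, 3-fold antibody dilution series that began at 80 nM before mixing, then incubated for 60 min at 4° C.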

In assay [2] the target is T1, Full-length human TIGIT on CHO-K1 cells …. Description: FACS; blocking of Bio-CD155-His binding to CHO-K1 human TIGIT cells. An outline of the steps:
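IC50 values in this blocking assay come from inhibition curves. CHO-K1 human TIGIT cells (2×10⁵/40 μL in 1% BSA-PBS) were combined with equal volumes of antibody, a 12-point 3-fold dilution series starting at 210 nM, and biotinylated CD155-His, diluted to 3 μg/mL, for 60 min at 4° C. Ligand binding was detected with APC-streptavidin (1:1700, 40 min, 4° C) and read by flow cytometry on a BD Canto II.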
On the technique in general: In flow cytometry, cells or beads pass a laser one at a time.

Assay [3] has as its target T2, Fusion protein of extracellular domain of human TIGIT and His-tag (human TIGIT ECD-his) (human).
T2 chain: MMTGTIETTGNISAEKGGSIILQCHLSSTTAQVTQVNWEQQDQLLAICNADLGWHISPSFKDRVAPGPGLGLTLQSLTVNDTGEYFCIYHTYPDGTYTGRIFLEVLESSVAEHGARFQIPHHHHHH
The assay can be described thus: BIAcore.

In assay [4] the target is T3, TIGIT on human PBMCs stimulated by SEA (human, UniProt Q495A1 22-244).
T3 construct: whole, on cells
T3 sequence (looked up): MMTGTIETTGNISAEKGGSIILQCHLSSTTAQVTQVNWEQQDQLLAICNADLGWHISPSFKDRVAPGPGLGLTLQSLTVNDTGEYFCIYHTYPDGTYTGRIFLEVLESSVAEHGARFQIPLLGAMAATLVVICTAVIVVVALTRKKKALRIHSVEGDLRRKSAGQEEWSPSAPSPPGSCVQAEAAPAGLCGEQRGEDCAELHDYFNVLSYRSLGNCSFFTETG
Description: FACS; binding to SEA-stimulated human PBMC. The method, then:
The fresh human PBMCs (AllCells, PB004-C) were adjusted to a density of 5×10⁵/mL, added with SEA (Toxin Technology, Inc., CAT: AT101) to 100 ng/ml, and cultured at 37° C. with 5% CO₂ for 3 days. The cells were collected 3 days later, washed once with PBS (Hyclone, CAT #SH30256), added with Fc Block (BD, 564220) and then incubated at 4° C. for 10 minutes. After washing twice with PBS, the PBMCs were resuspended to 2×10⁵/50 μL with 1% BSA-PBS. The humanized antibodies were diluted to 80 nM with 1% BSA-PBS (diluted by 3-fold serial dilution for 12 concentration points). The 50 μL cells were then mixed with 50 μL diluted antibodies, and then incubated at 4° C. for 60 minutes. […] After washing twice with PBS, the cell samples were resuspended with 1% BSA-PBS, 100 μL/well and then analyzed by flow cytometry (BD, Canto II).

The target of assay [5] is T1, Full-length human TIGIT on CHO-K1 cells …. Description: FACS; CHO-K1 human TIGIT low expression strain. An outline of the steps:
as §1

Assay [6] deals with T4, Fusion protein of extracellular domain of human TIGIT and mouse IgG2a Fc fragment (human TIGIT ECD-mFc) (human).
T4 construct: The entry includes the signal peptide (limits not recoverable) and the mouse IgG2a Fc
T4 chain: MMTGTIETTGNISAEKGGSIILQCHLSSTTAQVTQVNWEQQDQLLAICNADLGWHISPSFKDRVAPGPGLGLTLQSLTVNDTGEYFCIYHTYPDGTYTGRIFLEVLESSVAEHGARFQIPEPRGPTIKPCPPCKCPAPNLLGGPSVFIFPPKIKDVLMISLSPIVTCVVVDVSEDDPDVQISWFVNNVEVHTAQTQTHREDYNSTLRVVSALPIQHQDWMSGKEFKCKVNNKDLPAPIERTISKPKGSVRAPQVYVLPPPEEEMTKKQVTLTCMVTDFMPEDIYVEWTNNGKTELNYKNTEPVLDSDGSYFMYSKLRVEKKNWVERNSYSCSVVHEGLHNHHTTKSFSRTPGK
Description: FACS; blocking of TIGIT ECD-mFc binding to CHO-K1 CD112 cells. The protocol: The collected CHO-K1 CD112 cells were washed once with PBS (Hyclone, CAT #SH30256) and resuspended to 2×10⁵/40 μL with 1% BSA-PBS. The anti-TIGIT humanized antibodies were diluted to 600 nM with 1% BSA-PBS (diluted by 2.5-fold serial dilution for 12 concentration points). The TIGIT ECD-mFc was diluted with 1% BSA-PBS to 6 μg/mL. The 40 μL cells were then mixed with 40 μL diluted antibodies and 40 μL diluted TIGIT ECD-mFc, and then incubated at 4° C. for 60 minutes. […] The cell samples were washed twice with PBS, resuspended to 100 μL/well with 1% BSA-PBS and then analyzed by flow cytometry (BD, Canto II). […] (f) The binding activity of anti-TIGIT humanized antibodies to human PBMCs detected by FACS.

In assay [7] the target is T5, Full-length cynomolgus monkey TIGIT on CHO-K1 cells (CHO-K1 cynomolgus monkey TIGIT) (cynomolgus monkey).
T5 construct: NCBI XP_015300911.1
T5 sequence (chain, as listed by the source limits assumed): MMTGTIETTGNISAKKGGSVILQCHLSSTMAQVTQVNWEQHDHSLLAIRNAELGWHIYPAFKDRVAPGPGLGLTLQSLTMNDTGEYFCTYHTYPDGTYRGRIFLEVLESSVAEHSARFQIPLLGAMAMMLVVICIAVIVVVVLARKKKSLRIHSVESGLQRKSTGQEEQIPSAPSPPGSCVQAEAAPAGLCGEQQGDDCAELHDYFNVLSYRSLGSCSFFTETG
The assay can be described thus: FACS; CHO-K1 cynomolgus monkey TIGIT. An outline of the steps:
as §1

In assay [8] the target is T4, Fusion protein of extracellular domain …. The assay can be described thus: FACS; blocking of TIGIT ECD-mFc binding to CHO-K1 CD155 cells.
In assay [9] the target is T1, Full-length human TIGIT on CHO-K1 cells …. Description: FACS; CHO-K1 human TIGIT high expression strain. An outline of the steps:
as §1

For assay [10], the target named is T4, Fusion protein of extracellular domain …. The assay can be described thus: ELISA, human TIGIT ECD-mFc.
Assay [11] addresses T6, Fusion protein of extracellular domain of cynomolgus monkey TIGIT and mouse IgG2a Fc fragment (cynomolgus … (cynomolgus monkey)).
T6 construct: The entry includes the signal peptide (limits not recoverable) and the mouse IgG2a Fc
Description: ELISA, cynomolgus monkey TIGIT ECD-mFc. A general note: ELISA stands for enzyme-linked immunosorbent assay.

In assay [12] the target is T1, Full-length human TIGIT on CHO-K1 cells …. Description: cell binding, CHO-K1 human TIGIT high expression strain. An outline of the steps: (§2)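 Binding was measured by flow cytometry after a 60-minute, 4° C incubation of the antibodies with 2×10⁵ CHO-K1 cells displaying full-length human or cynomolgus monkey TIGIT. Antibody titration: 12 points, threefold serial dilution from 80 nM, in 1% BSA-PBS.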

The target in assay [13] is T6, Fusion protein of extracellular domain …. Description: ELISA, cynomolgus monkey TIGIT ECD-mFc. An outline of the steps: (§3)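 Plates blocked with 5% skim milk-PBS at 37° C for 2-4 h. Test antibodies applied as a 12-point 3-fold series from 13 nM for 1.5-2 h at 37° C. Read-out: HRP secondary (1:5000, 1 h, 37° C), TMB colour for 7-10 min at room temperature, acid stop, absorbance at OD450 nm.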
This is another data set of the same source.
Target sequence in this assay (chain, as listed by the source limits assumed): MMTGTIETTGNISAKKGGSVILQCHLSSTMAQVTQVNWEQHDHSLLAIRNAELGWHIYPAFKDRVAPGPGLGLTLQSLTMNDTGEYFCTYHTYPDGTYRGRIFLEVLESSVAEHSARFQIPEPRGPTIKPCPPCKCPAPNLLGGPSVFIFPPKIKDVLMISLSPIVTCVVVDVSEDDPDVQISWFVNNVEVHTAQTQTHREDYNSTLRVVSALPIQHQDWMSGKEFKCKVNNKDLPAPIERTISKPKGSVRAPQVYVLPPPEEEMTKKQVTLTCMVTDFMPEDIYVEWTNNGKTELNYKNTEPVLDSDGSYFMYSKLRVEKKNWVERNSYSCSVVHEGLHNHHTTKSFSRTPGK

Assay [14] deals with T4, Fusion protein of extracellular domain …. Description: ELISA, human TIGIT ECD-mFc. An outline of the steps: as §3
Assay [15] addresses T5, Full-length cynomolgus monkey TIGIT on …. The assay can be described thus: cell binding, CHO-K1 cynomolgus monkey TIGIT. In outline:
as §2

The target in assay [16] is T7, Fusion protein of extracellular domain of human TIGIT and human IgG1 Fc fragment (human TIGIT ECD-hFc) (human).
T7 construct: The entry includes the signal peptide (limits not recoverable) and the human IgG1 Fc
T7 sequence (chain, as listed by the source limits assumed): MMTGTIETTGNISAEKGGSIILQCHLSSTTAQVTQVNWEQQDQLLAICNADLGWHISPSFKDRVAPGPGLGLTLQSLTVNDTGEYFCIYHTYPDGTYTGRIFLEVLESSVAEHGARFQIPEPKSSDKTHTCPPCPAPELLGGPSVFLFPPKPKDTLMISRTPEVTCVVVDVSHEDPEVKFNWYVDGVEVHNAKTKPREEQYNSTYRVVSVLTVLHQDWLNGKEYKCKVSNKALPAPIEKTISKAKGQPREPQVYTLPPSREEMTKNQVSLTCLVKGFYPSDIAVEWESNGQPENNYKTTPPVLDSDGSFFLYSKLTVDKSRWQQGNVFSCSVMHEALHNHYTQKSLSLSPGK
Description: blocking of TIGIT ECD-hFc binding to CHO-K1 CD155 cells. An outline of the steps: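 The inhibition curves from which IC50 was calculated were generated by cell-based ELISA. Fixed CHO-K1 CD155 cells, blocked with 5% skim milk-PBS, were incubated at 37° C for 1.5-2 h with antibodies that had been premixed for 0.5 h with human TIGIT ECD-hFc at a working concentration of 30 ng/mL. Detection of bound TIGIT used HRP secondary antibody at 1:5000 for 1 h at 37° C, followed by TMB and reading as OD450 nm.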

Assay [17] concerns the target T2, Fusion protein of extracellular domain …. Description: BIAcore. In general terms: Surface plasmon resonance follows binding to a sensor surface in real time, without labels.
Assay [18] has the same target. The assay can be described thus: BIAcore; KD ratio to TIGIT-CHI-002.

In general, EC50 refers to the midpoint of the concentration-response curve. In general, IC50 refers to the point on the concentration scale where inhibition reaches its midpoint. What is called Kd is the constant that tells how readily two partners part at equilibrium. A word on the koff: it is the rate constant with which the complex falls apart. One may read the kon as the second-order rate constant of association.

Read-outs that look alike come from different tables or passages of the source.

B1: RG6058-hIgG1 (antibody, V domains shown)
VH: EVQLQQSGPGLVKPSQTLSLTCAISGDSVSSNSAAWNWIRQSPSRGLEWLGKTYYRFKWYSDYAVSVKGRITINPDTSKNQFSLQLNSVTPEDTAVFYCTRESTTYDLLAGPFDYWGQGTLVTVSS
VL: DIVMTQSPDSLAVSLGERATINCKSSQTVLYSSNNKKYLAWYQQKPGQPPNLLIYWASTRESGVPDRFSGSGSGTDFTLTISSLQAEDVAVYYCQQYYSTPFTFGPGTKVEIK
notes: Control anti-TIGIT antibody, human IgG1; also called Roche RG6058
In the case of B1, the EC50 in assay [1] came out at 652 pM; in [4] it was 285 pM; in [5], 481 pM; in assay [7] it was 2280 pM; in [9] it was 794 pM; in assay [10], 39.3 pM. Also, in [11], the EC50 was 48.6 pM. The IC50 was 334 pM in assay [2], 6000 pM in assay [6] and 584 pM in assay [8]. Besides, the Kd in [3] came out at 156 pM. The same molecule showed a koff in [3] of 0.000135 s⁻¹. The kon in assay [3] is 866000 M⁻¹ s⁻¹.

B2: TIGIT-002-H2L3 (antibody, V domains shown)
VH: EVQLQESGPGLVKPSETLSLTCAVSGYSITSDSWNWIRQPPGKKLEWIGYISYSGNTYYNPSLKSRVTISRDTSKNQFSLKLSSVTAADTAVYYCARLDFSNYGGAVDYWGQGTTVTVSS
VL: DIVMTQSPDSLAVSLGERATINCKASQNVRTAVAWYQQKPGQSPKLMIYSASYRYTGVPDRFSGSGSGTDFTLTISSLQAEDVAVYYCQQYYTTPWTFGGGTKVEIK
notes: Humanized anti-TIGIT antibody
As to B2, the EC50 was 27.8 pM in [12], 33.7 pM in assay [13], 15.9 pM in assay [14] and 150 pM in assay [15]. Moreover, the IC50 in [16] worked out at 540 pM. This molecule had a Kd in assay [17] of 266 pM. In [17], this molecule registered a koff of 0.00107 s⁻¹. In [17], this molecule gave a kon of 4.03e+06 M⁻¹ s⁻¹. The “Fold change vs chimeric antibodies (KD)” value in assay [18] was 6.3 fold.

B3: TIGIT-002-H3L3 (antibody, V domains shown)
VH: EVQLQESGPGLVKPSETLSLTCAVSGYSITSDSWNWIRQPPGKKLEWMGYISYSGNTYYNPSLKSRITISRDTSKNQFSLKLSSVTAADTAVYYCARLDFSNYGGAVDYWGQGTTVTVSS
VL: DIVMTQSPDSLAVSLGERATINCKASQNVRTAVAWYQQKPGQSPKLMIYSASYRYTGVPDRFSGSGSGTDFTLTISSLQAEDVAVYYCQQYYTTPWTFGGGTKVEIK
notes: Humanized anti-TIGIT antibody
Regarding B3, the EC50 in assay [12] came out at 36.1 pM; in assay [13] it was 22 pM; in assay [14], 17.3 pM; in assay [15] it was 91.9 pM. This molecule registered an IC50 in assay [16] of 338 pM. In addition, in assay [17], the Kd was 188 pM. This molecule returned a koff in assay [17] of 0.000852 s⁻¹. In assay [17], the kon came to 4.52e+06 M⁻¹ s⁻¹. Besides, the “Fold change vs chimeric antibodies (KD)” value in assay [18] came to 4.47 fold.

B4: TIGIT-002-H1L3 (antibody, V domains shown)
VH: EVQLQESGPGLVKPSETLSLTCAVSGYSITSDSWNWIRQPPGKGLEWIGYISYSGNTYYNPSLKSRVTISRDTSKNQFSLKLSSVTAADTAVYYCARLDFSNYGGAVDYWGQGTTVTVSS
VL: DIVMTQSPDSLAVSLGERATINCKASQNVRTAVAWYQQKPGQSPKLMIYSASYRYTGVPDRFSGSGSGTDFTLTISSLQAEDVAVYYCQQYYTTPWTFGGGTKVEIK
notes: Humanized anti-TIGIT antibody
As for B4, the EC50 in assay [12] was found to be 25.3 pM; in assay [13], 51.1 pM; in assay [14], 15.7 pM; in assay [15], 143 pM. In assay [16], this molecule showed an IC50 of 395 pM. The same molecule returned a Kd in assay [17] of 271 pM. The molecule also showed a koff in assay [17] of 0.000973 s⁻¹. The molecule also came in with an on-rate constant (kon) in assay [17] of 3.59e+06 M⁻¹ s⁻¹. Moreover, the “Fold change vs chimeric antibodies (KD)” value in assay [18] came out at 6.44 fold.

The values are drawn from US20240343803A1 (SHANDONG SIMCERE BIOPHARMACEUTICAL, published 2024).
